Percent of Tom20-FP1 spliced to the partner data for one substance are collected here from paper PMC8684756.

The target of one assay is Int^C-mCitrine-Tom7. As to the kind of experiment: protein trans-splicing.
For a further assay, the target named is Int^C-mCitrine-hFis1. Description: protein trans-splicing.

Take Tom20-mCherry-Int^N: the percent of Tom20-FP1 spliced to the partner in the assay with Int^C-mCitrine-Tom7 was 30%; in the assay with Int^C-mCitrine-hFis1, 50%.
